According to the PETadex activity labels (doi:10.1021/acscatal.9b00568):
Substitutions are numbered along the chain they refer to.

B1: unnamed (protein)
chain: MNFPRASRLMQAAVLGGLMAVSAAATAQTNPYARGPNPTAASLEASAGPFTVRSFTVSRPSGYGAGTVYYPTNAGGTVGAIAIVPGYTARQSSIKWWGPRLASHGFVVITIDTNSTLDQPSSRSSQQMAALRQVASLNGTSSSPIYGKVDTARMGVMGWSMGGGGSLISAANNPSLKAAAAQAPWDSSTNFSSVTVPTLIFACENDSIAPVNSSALPIYDSMSRNAKQFLEINGGSHSCANSGNSNQALIGKKGVAWMKRFMDNDTRYSTFACENPNSTRVSDFRTANCS
B2: unnamed (protein)
chain: B1 chain with A181P, D186V
B3: unnamed (protein)
chain: B1 chain with A181G
B4: unnamed (protein)
chain: B1 chain with S121D, A181P
B5: unnamed (protein)
chain: B1 chain with S121E, A181P
B6: unnamed (protein)
chain: B1 chain with A181S
B7: unnamed (protein)
chain: B1 chain with S121E, D186H
B8: unnamed (protein)
chain: B1 chain with S121D, A181P, D186H, R280A
B9: unnamed (protein)
chain: B1 chain with S121D, D186H
B10: unnamed (protein)
chain: B1 chain with A181P, D186I
B11: unnamed (protein)
chain: B1 chain with A181P, D186H
B12: unnamed (protein)
chain: B1 chain with S121E, A181P, D186H

Substrate: PET
Assay: Proxy for plastic degradation [HPLC-UV]
Settings: pH 9; 30 °C; 24 h

Question: Which “Proxy for plastic degradation” value does the source give for B1 here?
Answer: 4.2 µM

Question: Which “Proxy for plastic degradation” value does the source give for B2 here?
Answer: 2.4 µM

Question: How did the “Proxy for plastic degradation” value turn out when B3 was run?
Answer: 2.3 µM

Question: How did the “Proxy for plastic degradation” value turn out when B4 was run?
Answer: 5.3 µM

Question: Which “Proxy for plastic degradation” value does the source give for B5 here?
Answer: 10.8 µM

Question: Which “Proxy for plastic degradation” value does the source give for B6 here?
Answer: 3.5 µM

Question: For B7, which “Proxy for plastic degradation” value is on record?
Answer: 10.6 µM

Question: B8 was tested. Which “Proxy for plastic degradation” value did it give?
Answer: 22.2 µM

Question: Which “Proxy for plastic degradation” value does the source give for B9 here?
Answer: 13.4 µM

Question: For B10, which “Proxy for plastic degradation” value is on record?
Answer: 1.3 µM

Question: For B11, which “Proxy for plastic degradation” value is on record?
Answer: 10.4 µM

Question: How did the “Proxy for plastic degradation” value turn out when B12 was run?
Answer: 18.8 µM

Same assay, conditions: pH 9; 30 °C; 72 h

Question: B1 was tested. Which “Proxy for plastic degradation” value did it give?
Answer: 7.8 µM

Question: B2 was tested. Which “Proxy for plastic degradation” value did it give?
Answer: 4 µM

Question: For B3, which “Proxy for plastic degradation” value is on record?
Answer: 3.3 µM

Question: With B4 as the protein, how does the “Proxy for plastic degradation” value read?
Answer: 24.3 µM

Question: For B5, which “Proxy for plastic degradation” value is on record?
Answer: 19 µM

Question: How did the “Proxy for plastic degradation” value turn out when B6 was run?
Answer: 4.9 µM

Question: Which “Proxy for plastic degradation” value does the source give for B7 here?
Answer: 13.7 µM

Question: How did the “Proxy for plastic degradation” value turn out when B8 was run?
Answer: 57.2 µM

Question: For B9, which “Proxy for plastic degradation” value is on record?
Answer: 18.9 µM

Question: Which “Proxy for plastic degradation” value does the source give for B10 here?
Answer: 2.4 µM

Question: B11 was tested. Which “Proxy for plastic degradation” value did it give?
Answer: 12.8 µM

Question: B12 was tested. Which “Proxy for plastic degradation” value did it give?
Answer: 30.5 µM

Same assay, conditions: pH 9; 40 °C; 24 h

Question: How did the “Proxy for plastic degradation” value turn out when B1 was run?
Answer: 7.5 µM

Question: For B2, which “Proxy for plastic degradation” value is on record?
Answer: 1.9 µM

Question: With B3 as the protein, how does the “Proxy for plastic degradation” value read?
Answer: 1.2 µM

Question: How did the “Proxy for plastic degradation” value turn out when B4 was run?
Answer: 2.6 µM

Question: Which “Proxy for plastic degradation” value does the source give for B5 here?
Answer: 3.6 µM

Question: With B6 as the protein, how does the “Proxy for plastic degradation” value read?
Answer: 1.9 µM

Question: For B7, which “Proxy for plastic degradation” value is on record?
Answer: 13.9 µM

Question: Which “Proxy for plastic degradation” value does the source give for B8 here?
Answer: 69.8 µM

Question: For B9, which “Proxy for plastic degradation” value is on record?
Answer: 18 µM

Question: With B10 as the protein, how does the “Proxy for plastic degradation” value read?
Answer: 1.2 µM

Question: B11 was tested. Which “Proxy for plastic degradation” value did it give?
Answer: 8.7 µM

Question: Which “Proxy for plastic degradation” value does the source give for B12 here?
Answer: 38.7 µM

Same assay, conditions: pH 9; 40 °C; 72 h

Question: Which “Proxy for plastic degradation” value does the source give for B1 here?
Answer: 7.6 µM

Question: For B2, which “Proxy for plastic degradation” value is on record?
Answer: 7.1 µM

Question: B3 was tested. Which “Proxy for plastic degradation” value did it give?
Answer: 1.7 µM

Question: For B4, which “Proxy for plastic degradation” value is on record?
Answer: 7.2 µM

Question: For B5, which “Proxy for plastic degradation” value is on record?
Answer: 5.2 µM

Question: How did the “Proxy for plastic degradation” value turn out when B6 was run?
Answer: 2.2 µM

Question: For B7, which “Proxy for plastic degradation” value is on record?
Answer: 19.8 µM

Question: B8 was tested. Which “Proxy for plastic degradation” value did it give?
Answer: 93.6 µM

Question: How did the “Proxy for plastic degradation” value turn out when B9 was run?
Answer: 25.3 µM

Question: B10 was tested. Which “Proxy for plastic degradation” value did it give?
Answer: 6.9 µM

Question: How did the “Proxy for plastic degradation” value turn out when B11 was run?
Answer: 19.7 µM

Question: With B12 as the protein, how does the “Proxy for plastic degradation” value read?
Answer: 52.2 µM
